Assay results from patent US20210032351A1 (XDCEXPLORER SHANGHAI, published 2021).
Ends that are not written are not given here. * marks the point of attachment. Biotin = O=C1N[C@H]2[C@H](CS[C@H]2CCCCC(=O)*)N1

Columns and labels:
[1] = target: T1, human EGFRvIII-hFc protein (human, UniProt P00533 25-645); experiment: ELISA, coated EGFRvIII-hFc, antibody 0.0001 nM
T1 construct: extracellular domain; made in HEK293 cells, purified on protein A; also called immunogen A; hFc-tagged EGFRvIII protein; not shown: human IgG Fc fragment (hFc) of the pCpC vector
In short: (§1)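 Binding of purified EGFRvIII antibody was measured on plates coated overnight at 4° C with 1.0 μg/mL EGFRvIII-hFc. After BSA blocking, antibody and then an HRP-conjugated secondary were each incubated 2 h at 37° C, and signal was taken as A450 nm.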

[2] = target: T1, human EGFRvIII-hFc protein; experiment: ELISA, coated EGFRvIII-hFc, antibody 0.01 nM
In short: as §1

[3] = target: T2, pep17; experiment: polypeptide dot matrix ELISA
T2 peptide: VRACGADSYEMEEDGVK(Biotin)

[4] = target: T3, pep11 (cysteine pairing not given here); experiment: polypeptide dot matrix ELISA
T3 peptide: TDHGSCVRACGADSYEK(Biotin)

[5] = target: T4, pep30 (cysteine pairing not given here); experiment: polypeptide dot matrix ELISA
T4 peptide: DGVRKCKKCEGPCRKVK(Biotin)

[6] = target: T5, pep19; experiment: polypeptide dot matrix ELISA
T5 peptide: ACGADSYEMEEDGVRKK(Biotin)

[7] = target: T6, pep24 (cysteine pairing not given here); experiment: polypeptide dot matrix ELISA
T6 peptide: SYEMEEDGVRKCKKCEK(Biotin)

[8] = target: T7, pep02; experiment: polypeptide dot matrix ELISA
T7 peptide: EEKKGNYVVTDHGSCVK(Biotin)

[9] = target: T8, pep04; experiment: polypeptide dot matrix ELISA
T8 peptide: KKGNYVVTDHGSCVRAK(Biotin)

[10] = target: T9, pep14 (cysteine pairing not given here); experiment: polypeptide dot matrix ELISA
T9 peptide: GSCVRACGADSYEMEEK(Biotin)

[11] = target: T10, pep10 (cysteine pairing not given here); experiment: polypeptide dot matrix ELISA
T10 peptide: VTDHGSCVRACGADSYK(Biotin)

[12] = target: T11, pep09 (cysteine pairing not given here); experiment: polypeptide dot matrix ELISA
T11 peptide: VVTDHGSCVRACGADSK(Biotin)

[13] = target: T12, pep23 (cysteine pairing not given here); experiment: polypeptide dot matrix ELISA
T12 peptide: DSYEMEEDGVRKCKKCK(Biotin)

[14] = target: T13, pep32 (cysteine pairing not given here); experiment: polypeptide dot matrix ELISA
T13 peptide: VRKCKKCEGPCRKVCNK(Biotin)

[15] = target: T14, pep18; experiment: polypeptide dot matrix ELISA
T14 peptide: RACGADSYEMEEDGVRK(Biotin)

[16] = target: T15, pep15 (cysteine pairing not given here); experiment: polypeptide dot matrix ELISA
T15 peptide: SCVRACGADSYEMEEDK(Biotin)

[17] = target: T16, pep28 (cysteine pairing not given here); experiment: polypeptide dot matrix ELISA
T16 peptide: EEDGVRKCKKCEGPCRK(Biotin)

[18] = target: T17, pep16 (cysteine pairing not given here); experiment: polypeptide dot matrix ELISA
T17 peptide: CVRACGADSYEMEEDGK(Biotin)

[19] = target: T18, pep20 (cysteine pairing not given here); experiment: polypeptide dot matrix ELISA
T18 peptide: CGADSYEMEEDGVRKCK(Biotin)

[20] = target: T19, human EGFRvIII-hFc protein (human, UniProt P00533 25-645); experiment: ELISA, EGFRvIII-hFc coated
T19 construct: extracellular domain; also called immunogen A; hFc-tagged EGFRvIII protein; not shown: human IgG Fc fragment (hFc) of the pCpC vector

[21] = target: T20, human wild-type EGFR protein on the cell surface (human, UniProt P00533 25-1210); experiment: FACS, MFI on A431 cells over MFI on normal primary hepatocytes; ratio of MFI on A431 to MFI on hepatocytes
T20 construct: whole, on cells; Endogenous on A431, HEB, U87MG cells and normal human primary hepatocytes; transfected on CHOk1-EGFR cells; The cell is named under assay; also called A431; HEB

B1: Murine anti-75G7 (antibody, V domains shown)
VH: EVQLQQSGPELVKPGASVKIPCKASGYTFTDYNMDWVKQSHGKSLEWIGDINPNNGDTIYNQKFKGKATLTVDKSSSTAYMELRSLTSEDTAVYYCARGDYDGYYPVYYAMDYWGQGTSVTVSS
VL: ENVLTQSPAIMSASPGEKVTMTCRASSSVSSSYLHWYQQKSGASPKLWIFSTSNLAAGVPARFSGSGSGTSYSLTVSSVEAEDAATYYCQQYSGYPLTFGAGTKLELK
notes: murine hybridoma antibody; also called 75G7C6
0.07: OD450 nm [1]
0.06: OD450 nm [2]
no binding: binding result [3] | binding result [4] | binding result [5] | binding result [6] | binding result [7] | binding result [8] | binding result [9] | binding result [10] | binding result [11] | binding result [12] | binding result [13] | binding result [14] | binding result [15] | binding result [16] | binding result [17] | binding result [18] | binding result [19]

B2: Chimeric antibody 75G7 (antibody, human IgG1, V domains shown)
VH: B1 VH
VL: B1 VL
notes: also called c75G7C6; chimeric antibody c75G7C6
26.5 fold: Selective window (MFI A431/Hepatocytes) [21]
2.5 OD450: Maximum OD450 value [20]
0.5 nM: EC50 [20]
